The values that follow come from patent publication US20260218174.

Assay in all cases: cleavage_in_vitro
The subject of data set [1] is OMNI-XL-18 (unidentified metagenomic bacterium). To be noted: TXTL; PAM NGYCCNNN
Data set [2] deals with OMNI-XL-12 (unidentified metagenomic bacterium). To be noted: TXTL; PAM relaxed NRNNCCNN, strict NRTNCCRN
In data set [3] the test system is OMNI-XL-16 (unidentified metagenomic bacterium). To be noted: TXTL; PAM NARNACVN
In data set [4] the test system is OMNI-XL-19 (unidentified metagenomic bacterium). To be noted: TXTL; PAM NRGNRCNN
Chain of OMNI-XL-19 (unidentified metagenomic bacterium) (chain, as listed by the source): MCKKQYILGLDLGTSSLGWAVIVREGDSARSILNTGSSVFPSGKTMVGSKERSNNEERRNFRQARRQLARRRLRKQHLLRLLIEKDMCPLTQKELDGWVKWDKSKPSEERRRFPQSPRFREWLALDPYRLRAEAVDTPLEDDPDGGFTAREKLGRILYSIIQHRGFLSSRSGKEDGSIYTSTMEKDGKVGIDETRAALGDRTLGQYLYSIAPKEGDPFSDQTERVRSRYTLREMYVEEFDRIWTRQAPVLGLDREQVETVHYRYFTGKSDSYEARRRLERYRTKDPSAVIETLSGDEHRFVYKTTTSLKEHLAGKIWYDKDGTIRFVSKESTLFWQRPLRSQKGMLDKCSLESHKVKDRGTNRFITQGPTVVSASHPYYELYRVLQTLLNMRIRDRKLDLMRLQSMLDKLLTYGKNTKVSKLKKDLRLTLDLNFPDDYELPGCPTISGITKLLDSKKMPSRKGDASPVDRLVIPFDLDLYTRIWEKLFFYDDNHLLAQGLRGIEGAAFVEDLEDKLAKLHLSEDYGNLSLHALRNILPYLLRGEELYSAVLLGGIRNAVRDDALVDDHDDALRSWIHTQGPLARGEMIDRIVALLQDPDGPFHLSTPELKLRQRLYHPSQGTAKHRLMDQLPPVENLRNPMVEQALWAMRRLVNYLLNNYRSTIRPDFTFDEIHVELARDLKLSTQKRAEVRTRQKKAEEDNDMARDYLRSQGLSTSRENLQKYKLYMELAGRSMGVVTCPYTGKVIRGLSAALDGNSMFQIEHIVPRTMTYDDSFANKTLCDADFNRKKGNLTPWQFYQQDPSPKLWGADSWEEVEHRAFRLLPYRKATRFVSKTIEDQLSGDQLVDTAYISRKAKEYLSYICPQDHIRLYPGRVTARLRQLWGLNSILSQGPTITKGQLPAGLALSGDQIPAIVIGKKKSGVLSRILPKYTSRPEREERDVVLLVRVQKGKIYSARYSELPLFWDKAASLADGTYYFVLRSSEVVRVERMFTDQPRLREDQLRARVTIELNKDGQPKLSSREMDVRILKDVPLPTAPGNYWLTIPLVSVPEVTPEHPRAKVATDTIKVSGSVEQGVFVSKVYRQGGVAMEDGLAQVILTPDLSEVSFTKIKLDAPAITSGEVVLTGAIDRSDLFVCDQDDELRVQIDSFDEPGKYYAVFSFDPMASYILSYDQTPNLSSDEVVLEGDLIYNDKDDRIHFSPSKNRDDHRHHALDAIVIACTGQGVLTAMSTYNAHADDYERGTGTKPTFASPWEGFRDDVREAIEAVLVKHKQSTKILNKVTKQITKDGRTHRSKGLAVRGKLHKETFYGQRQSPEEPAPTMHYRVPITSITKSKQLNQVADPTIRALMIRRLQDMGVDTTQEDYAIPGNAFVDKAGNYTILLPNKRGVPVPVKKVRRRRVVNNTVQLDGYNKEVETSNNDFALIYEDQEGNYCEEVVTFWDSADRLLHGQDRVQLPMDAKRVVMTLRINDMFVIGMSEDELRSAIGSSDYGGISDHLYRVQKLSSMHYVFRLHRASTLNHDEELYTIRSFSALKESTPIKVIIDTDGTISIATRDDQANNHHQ

Chain of OMNI-XL-18 (unidentified metagenomic bacterium) (chain, as listed by the source): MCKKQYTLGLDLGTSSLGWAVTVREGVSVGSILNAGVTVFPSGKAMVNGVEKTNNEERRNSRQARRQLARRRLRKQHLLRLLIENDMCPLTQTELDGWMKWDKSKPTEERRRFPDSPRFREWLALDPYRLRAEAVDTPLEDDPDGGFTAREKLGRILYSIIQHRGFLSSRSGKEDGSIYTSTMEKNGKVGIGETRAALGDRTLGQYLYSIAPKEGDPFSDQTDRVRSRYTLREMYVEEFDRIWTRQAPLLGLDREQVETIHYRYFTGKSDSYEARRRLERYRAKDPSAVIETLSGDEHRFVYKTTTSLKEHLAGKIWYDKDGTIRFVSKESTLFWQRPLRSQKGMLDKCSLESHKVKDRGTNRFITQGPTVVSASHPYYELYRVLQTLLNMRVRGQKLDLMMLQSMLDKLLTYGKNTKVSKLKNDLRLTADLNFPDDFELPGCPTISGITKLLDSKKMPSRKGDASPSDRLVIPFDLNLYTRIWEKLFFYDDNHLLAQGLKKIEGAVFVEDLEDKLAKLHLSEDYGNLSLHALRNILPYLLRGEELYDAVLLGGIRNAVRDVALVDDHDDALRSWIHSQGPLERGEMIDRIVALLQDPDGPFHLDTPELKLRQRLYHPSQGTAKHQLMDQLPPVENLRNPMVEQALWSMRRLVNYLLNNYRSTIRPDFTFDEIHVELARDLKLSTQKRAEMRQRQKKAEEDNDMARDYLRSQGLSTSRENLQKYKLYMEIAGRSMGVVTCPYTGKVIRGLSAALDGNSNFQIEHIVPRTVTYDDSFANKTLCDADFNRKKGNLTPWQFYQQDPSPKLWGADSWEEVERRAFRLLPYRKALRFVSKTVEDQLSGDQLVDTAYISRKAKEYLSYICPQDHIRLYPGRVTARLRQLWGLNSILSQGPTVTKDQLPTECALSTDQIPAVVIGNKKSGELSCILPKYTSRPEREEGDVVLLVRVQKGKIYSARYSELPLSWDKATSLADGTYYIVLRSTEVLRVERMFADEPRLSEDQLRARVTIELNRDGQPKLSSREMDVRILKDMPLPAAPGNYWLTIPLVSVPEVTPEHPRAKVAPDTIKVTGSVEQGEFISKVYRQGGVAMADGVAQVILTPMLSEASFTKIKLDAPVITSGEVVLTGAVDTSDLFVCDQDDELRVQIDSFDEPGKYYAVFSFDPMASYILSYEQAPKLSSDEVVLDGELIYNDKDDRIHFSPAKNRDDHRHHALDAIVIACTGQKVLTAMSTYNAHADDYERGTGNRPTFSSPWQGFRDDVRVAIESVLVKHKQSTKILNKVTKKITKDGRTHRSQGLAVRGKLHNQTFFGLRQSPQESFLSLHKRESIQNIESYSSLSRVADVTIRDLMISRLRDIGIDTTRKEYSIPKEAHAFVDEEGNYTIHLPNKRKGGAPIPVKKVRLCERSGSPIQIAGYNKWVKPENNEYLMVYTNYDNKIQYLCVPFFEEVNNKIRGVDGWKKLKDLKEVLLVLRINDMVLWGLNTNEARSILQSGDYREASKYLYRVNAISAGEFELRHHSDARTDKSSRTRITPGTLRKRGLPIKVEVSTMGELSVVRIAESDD
Chain of OMNI-XL-12 (unidentified metagenomic bacterium) (chain, as listed by the source): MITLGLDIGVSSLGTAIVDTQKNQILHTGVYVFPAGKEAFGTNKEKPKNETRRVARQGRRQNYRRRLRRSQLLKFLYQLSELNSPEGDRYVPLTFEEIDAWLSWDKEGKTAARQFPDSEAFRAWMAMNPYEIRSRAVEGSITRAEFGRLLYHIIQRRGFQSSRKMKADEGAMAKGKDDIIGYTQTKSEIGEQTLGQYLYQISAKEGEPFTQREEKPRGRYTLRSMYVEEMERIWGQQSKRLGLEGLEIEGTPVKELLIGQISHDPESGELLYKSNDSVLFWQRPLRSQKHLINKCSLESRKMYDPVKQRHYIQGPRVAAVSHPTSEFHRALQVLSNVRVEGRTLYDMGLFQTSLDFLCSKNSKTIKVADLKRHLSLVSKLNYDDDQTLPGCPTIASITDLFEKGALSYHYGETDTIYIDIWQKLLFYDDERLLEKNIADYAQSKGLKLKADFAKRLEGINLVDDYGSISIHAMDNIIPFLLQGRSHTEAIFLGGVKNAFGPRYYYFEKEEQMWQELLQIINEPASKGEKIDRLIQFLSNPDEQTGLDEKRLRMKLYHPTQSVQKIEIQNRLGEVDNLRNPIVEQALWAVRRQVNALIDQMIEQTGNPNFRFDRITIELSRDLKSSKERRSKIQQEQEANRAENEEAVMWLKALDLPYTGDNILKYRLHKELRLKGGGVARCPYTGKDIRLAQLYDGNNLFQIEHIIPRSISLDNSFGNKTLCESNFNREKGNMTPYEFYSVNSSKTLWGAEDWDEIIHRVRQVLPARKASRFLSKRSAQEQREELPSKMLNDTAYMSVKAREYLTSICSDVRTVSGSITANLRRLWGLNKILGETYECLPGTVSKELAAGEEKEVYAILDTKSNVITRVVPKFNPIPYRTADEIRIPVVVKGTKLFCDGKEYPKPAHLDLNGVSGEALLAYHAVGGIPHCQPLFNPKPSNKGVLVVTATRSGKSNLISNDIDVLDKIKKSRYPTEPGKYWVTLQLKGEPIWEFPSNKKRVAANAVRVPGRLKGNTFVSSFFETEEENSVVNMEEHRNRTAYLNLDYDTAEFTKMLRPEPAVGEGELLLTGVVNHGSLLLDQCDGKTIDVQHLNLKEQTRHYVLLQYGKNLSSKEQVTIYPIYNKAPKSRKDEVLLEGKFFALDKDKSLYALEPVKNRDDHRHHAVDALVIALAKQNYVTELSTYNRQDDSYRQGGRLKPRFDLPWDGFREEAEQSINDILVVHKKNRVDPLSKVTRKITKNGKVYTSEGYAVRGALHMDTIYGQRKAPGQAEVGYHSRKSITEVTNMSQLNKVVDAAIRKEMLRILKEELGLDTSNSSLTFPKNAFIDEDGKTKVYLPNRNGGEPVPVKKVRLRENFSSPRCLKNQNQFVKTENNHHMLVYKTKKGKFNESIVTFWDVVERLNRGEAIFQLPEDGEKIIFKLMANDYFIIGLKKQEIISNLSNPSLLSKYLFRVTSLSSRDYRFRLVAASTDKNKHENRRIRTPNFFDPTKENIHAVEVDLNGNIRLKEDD

Turning to “GGAAGAGCAGAGCCUUGGUCUCGUUGUGGAUUGAUCAGUUUGAAAAAACGAUCUUUUCACAACAAGGCUAUAUGCCGUAGUUGAUUCUACGCUCCCGCUUCGGCGGGAGCUUUUUUU / GGAAGAGCAGAGCCTTGGTCTCNNNNNNNN / NNNNNNNNGAGACCAAGGCTCTGCTCTTCC [OMNI-XL-18 sgRNA V1 T2 ; T2 protospacer 8N PAM library]”, the activity (1-depletion score) in data set [1] amounted to 0.97. Take “GGAAGAGCAGAGCCUUGGUCUCGUUGUGGAUUGAUUACUUUGAAAAAAGUAAUCUUUUCAUAACAAGGCUAUAUGCCGAAGUUAUUACGGCUCCACUUCGGUGGAGCCUUUUUU / GGAAGAGCAGAGCCTTGGTCTCNNNNNNNN / NNNNNNNNGAGACCAAGGCTCTGCTCTTCC [OMNI-XL-12 sgRNA V1 T2 ; T2 protospacer 8N PAM library]”: in data set [2], the activity (1-depletion score) was 0.98.

Turning to “GGAAGAGCAGAGCCUUGGUCUCGUUGUGGAUUGAUUACUUUGAAAAAAGUAAUCUCUUCAUAACAAGGCUAUAUGCCGAAGUUAUUACGGCUCCACUUCGGUGGAGCCUUUUUU / GGAAGAGCAGAGCCTTGGTCTCNNNNNNNN / NNNNNNNNGAGACCAAGGCTCTGCTCTTCC [OMNI-XL-12 sgRNA V2 T2 ; T2 protospacer 8N PAM library]”, in data set [2], the activity (1-depletion score) amounted to 0.97. In data set [1], “GGAAGAGCAGAGCCUUGGUCUCGUUGUGGAUUGAUCAGUUUGAAAAAACGAUCUCUUCACAACAAGGCUAUAUGCCGUAGUUGAUUCUACGCUCCCGCUUCGGCGGGAGCUUUUUUU / GGAAGAGCAGAGCCTTGGTCTCNNNNNNNN / NNNNNNNNGAGACCAAGGCTCTGCTCTTCC [OMNI-XL-18 sgRNA V2 T2 ; T2 protospacer 8N PAM library]” showed an activity (1-depletion score) of 0.98. “GGAAGAGCAGAGCCUUGGUCUCGUUGUGGUUUGAUGUAAUUGAAAAAAUUACAUCUUAUCACAAUAAGGCUAUAUGCCGAAGGAUAAAAUGUCCUAUACUCCUGCUUCGGUAGGAGUUUUUUU / GGAAGAGCAGAGCCTTGGTCTCNNNNNNNN / NNNNNNNNGAGACCAAGGCTCTGCTCTTCC [OMNI-XL-16 sgRNA V1 T2 ; T2 protospacer 8N PAM library]” displayed an activity (1-depletion score) in data set [3] of 0.64. On to “GGAAGAGCAGAGCCUUGGUCUCGUUGUGGAUUGAUCAGUUUGAAAAAACGAUCUUUUCACAACAAGGCUAUAUGCCGUAGUUGAUUCUACGCUCCCGCUUCGGCGGGAGCUUUUUUUU / GGAAGAGCAGAGCCTTGGTCTCNNNNNNNN / NNNNNNNNGAGACCAAGGCTCTGCTCTTCC [OMNI-XL-19 sgRNA V1 T2 ; T2 protospacer 8N PAM library]”, for which, in data set [4], the activity (1-depletion score) is 0.94.
